The supplement of paper PMC11908140

B1: library; numbered along this chain (parent)
chain: MRKPRAAVGSGHRKQAASQEGRQKHAKNNSQAKPSACDGLARQPEEVVLQASVSSYHLFRDVAEVTAFRGSLLSWYDQEKRDLPWRRRAEDEMDLDRRAYAVWVSEVMLQQTQVATVINYYTGWMQKWPTLQDLASASLEEVNQLWAGLGYYSRGRRLQEGARKVVEELGGHMPRTAETLQQLLPGVGRYTAGAIASIAFGQATGVVDGNVARVLCRVRAIGADPSSTLVSQQLWGLAQQLVDPARPGDFNQAAMELGATVCTPQRPLCSQCPVESLCRARQRVEQEQLLASGSLSGSPDVEECAPNTGQCHLCLPPSEPWDQTLGVVNFPRKASRKPPREESSATCVLEQPGALGAQILLVQRPNSGLLAGLWEFPSVTWEPSEQLQRKALLQELQRWAGPLPATHLRHLGEVVHTFSHIKLTYQVYGLALEGQTPVTTVPPGARWLTQEEFHTAAVSTAMKKVFRVYQGQQPGTCMGSKRSQVSSPCSRKKPRMGQQVLDNFFRSHISTDAHSLNSAAQ

Variants of: B1
Assay: 8OG:A repair function score (normalized; synonymous = 0, nonsense = -1) (normalized log-likelihood score); higher = more repair activity (WT-like)
Conditions: with 8OG:A DNA repair reporter (GFP) in HEK-293 MUTYH KO cells
Procedure: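 Saturation mutagenesis (NNN codon scan) of the MUTYH cDNA (521-aa nuclear isoform NM_001048174.1 / NP_001041639), stably expressed under doxycycline induction in HEK-293 MUTYH knockout cells. Cells were co-transfected with an 8OG:A-bearing GFP repair reporter plus mCherry and sorted 72 h later into GFP+ and GFP− bins, three replicates per tile. The Rosace log2 enrichment (GFP+ vs GFP−) was converted per tile to a normalized function score with synonymous variants centered at 0 and nonsense variants (codons 1-471) at -1; low-abundance variants were removed.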

Variant	8OG:A repair function score
V468E	-0.259
V468C	-0.0116
M496I	-0.0358
N503K	-0.0135
V438F	-0.193
V230Y	-0.311
L423H	0.0797
D133T	-0.0145
V102W	-1.13
K422M	-0.42
Q50W	0.014
Q50A	-0.00978
Q111R	-0.248
P316L	-0.126
Q323Y	-0.013
Q323W	-0.0368
S510Q	-0.053
E92Q	-0.0495
K492P	0.0192
A357V	-0.0294
T436N	-0.0228

Variant	8OG:A repair function score
T436I	-0.0834
V284F	-0.00936
Q271N	0.0195
M462W	-0.592
A371W	-0.408
A305P	-0.125
A305T	-0.034
T116V	-0.0225
R279H	-0.0508
R389L	-0.04
A115M	-0.164
R409T	0.31
K333Y	-0.0195
V465K	-1.19
V465T	-0.191
P247N	-1
H407M	-0.456
R97K	-0.0457
A259V	-0.765
S480K	0.0154
G309W	-0.149

Variant	8OG:A repair function score
S296H	-0.0357
E303Y	-0.231
S52V	-0.00119
H410N	-0.157
S378D	-0.953
T511V	-0.00751
D243K	-0.914
D243G	-0.755
S419V	-0.259
S384G	0.138
Y120P	-0.134
D91S	-0.00182
R2Q	-0.0466
P404R	0.163
P404F	-0.272
P404W	-0.26
E45M	0.00456
E45L	-0.0561
Q78K	-0.0833
Q78G	-0.0331
L184Y	-0.855

Variant	8OG:A repair function score
G186I	-1.23
Q472C	-0.0129
Q472I	0.0116
L158T	-0.756
L109G	-0.659
G193K	-0.203
G193A	-0.0458
A354D	-0.0478
Q484I	-0.0366
Q484T	0.0125
A457S	-0.432
A457G	-0.183
L325P	-0.354
L73S	-0.594
L73W	-0.824
V187L	-0.609
S344A	0.0466
S483A	0.00092
K481C	0.0191
L169W	-0.0366
L169P	-0.645
